The results in this text go back to patent US20180105585A1.

For assay [1], the target named is Biotinylated human Amyloid beta 1-42 peptide (human). Nature of the assay: HTRF epitope competition, purified scFv against Abet0042 IgG (competitor) for biotinylated human Amyloid beta 1-42.
Assay [2] shares this target. Kind of assay: SPR (BIAcore T-100), biotinylated peptide on SA chip, scFv 12.5-400 nM, 1:1 Langmuir.

Positions count from the first letter of the chain named.

Sequence of Biotinylated human Amyloid beta 1-42 peptide (human) (peptide, as listed by the source): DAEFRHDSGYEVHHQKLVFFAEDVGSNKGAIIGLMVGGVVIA

B1: Abet0007 scFv (scFv, part only; not given: Linker, tags and domain order, V domains shown, not shown: another chain or arm of the molecule; small tags and cut ends)
VH: EVQLLESGGGLVQPGGSLRLSCAASGFTFSVYTMWWVRQAPGKGLEWVSVIGSSGGTTVYADSVKGRFTISRDNSKNTLYLQMNSLRAEDTAVYYCAREGQQLVRPYYYYGMDVWGQGTLVTVSS
VL: QSVLTQPPSVSVSPGQTASITCSGHNLEDKFASWYQQKSGQSPVLVIYRDDKRPSGIPERFSASNSGHTATLTISGTQATDEADYYCQAQDSTTRVFGGGTKLTVL
Regarding B1, the IC50 in assay [1] turned out to be 159 nM.

B2: Abet0144 scFv (scFv, part only; not given: Linker, tags and domain order, V domains shown, not shown: another chain or arm of the molecule; small tags and cut ends)
VH: B1 VH with G100W, Q101M, Q102D, L103H, V104S
VL: B1 VL
For B2, in assay [2], the Kd came out at 33.2 nM, the koff amounted to 0.00666 s⁻¹ and the kon was 201000 M⁻¹ s⁻¹. In addition, the IC50 in assay [1] worked out at 5.5 nM.
